This experiment addresses T1, monomeric human c-fms (residues 1-512)-pHis (human, UniProt P07333 20-512).
T1 construct: Construct stated as residues 1-512; signal stated as amino acids 1-19 and left out; also called human c-fms (1-512).pHIS; monomeric c-fms
The experiment is described as follows: Biacore, low resolution; hybridoma mAb captured on anti-human IgG, monomeric c-fms-pHis analyte at 125 nM. How it is done: Anti-human IgG was immobilized on all four flow cells of a sensor chip using amine coupling. Crude hybridoma samples were diluted into halves and captured on the anti-IgG surface. […] Sequence lineage analyses were also performed on the 29 hybridomas (see, FIG. 2).
In general terms: SPR reads the build-up and loss of mass on a sensor chip optically.

Positions count from the first letter of the chain named.

T1 sequence (P07333 20-512): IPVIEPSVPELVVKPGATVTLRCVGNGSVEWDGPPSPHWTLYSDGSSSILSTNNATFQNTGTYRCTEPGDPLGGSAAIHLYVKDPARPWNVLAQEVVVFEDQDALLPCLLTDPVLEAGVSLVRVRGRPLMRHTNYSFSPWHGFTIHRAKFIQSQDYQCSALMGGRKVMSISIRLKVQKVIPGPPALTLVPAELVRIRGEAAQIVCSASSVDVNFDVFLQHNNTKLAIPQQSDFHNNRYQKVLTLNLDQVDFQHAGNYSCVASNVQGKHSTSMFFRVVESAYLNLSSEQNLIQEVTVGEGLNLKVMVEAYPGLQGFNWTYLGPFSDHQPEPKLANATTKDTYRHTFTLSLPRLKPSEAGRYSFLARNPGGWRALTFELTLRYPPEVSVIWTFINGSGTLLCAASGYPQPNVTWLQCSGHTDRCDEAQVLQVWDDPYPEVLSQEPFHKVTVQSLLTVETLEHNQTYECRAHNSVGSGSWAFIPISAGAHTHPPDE

B1: anti-c-fms hybridoma antibody 2.550 (antibody, IgG2, V domains shown)
VH: QVQLVQSGAEVKKPGASVKVSCKASGYTLTSYGISWVRQAPGQGLEWMGWISAYNGNPNYAQKFQGRVTMTTDTSTSTAYMELRSLRSDDTAVYYCARDQGLLGFGELEGLFDYWGQGTLVTVSS
VL: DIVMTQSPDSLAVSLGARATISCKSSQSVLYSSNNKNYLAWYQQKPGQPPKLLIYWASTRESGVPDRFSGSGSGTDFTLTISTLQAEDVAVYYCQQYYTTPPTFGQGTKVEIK
notes: Hybridoma IgG2 (cohort 2)
What is called Kd is the constant that tells how readily two partners part at equilibrium. The koff is a measure of how fast the partners let go of each other. In general, kon refers to the second-order rate constant of association. High values mean faster complex formation, low ones slower complex formation. For the molecule B1, the affinity, expressed as Kd, was 24 nM; the koff amounted to 0.00724 s⁻¹; the kon stood at 300000 M⁻¹ s⁻¹.

B2: anti-c-fms hybridoma antibody 1.33.1.1 (antibody, IgG1, V domains shown)
VH: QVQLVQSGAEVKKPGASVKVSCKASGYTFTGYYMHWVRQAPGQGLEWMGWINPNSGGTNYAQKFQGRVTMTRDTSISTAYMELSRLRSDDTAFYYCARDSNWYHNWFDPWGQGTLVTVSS
VL: DIQMTQSPSSLSASVGDRVTITCRASQSISDYLNWYQQKPGKAPNLLIYAASSLQSGVPSRFSGSGSGTDFTLTISSLQPEDFATYFCQQTYSDPFTFGPGTKVDIK
notes: Hybridoma IgG1 (cohort 1)
Consider B2, for which binding was characterised by a dissociation constant (Kd) of 1.2 nM, the koff was 0.000116 s⁻¹ and the kon came out at 98900 M⁻¹ s⁻¹.

B3: anti-c-fms hybridoma antibody 1.72 (antibody, IgG1, V domains shown)
VH: EVQLVESGGGLVEPGGSLRLSCAASGFTFSTAWMSWVRQAPGKGLEWVGRIKSKTDGGTTDYAAPVKGRFTISRDDSKNTLYLQMNSLKNEDTAVYYCTTEGPYSNYGYYYYGVDVWGQGTTVTVSS
VL: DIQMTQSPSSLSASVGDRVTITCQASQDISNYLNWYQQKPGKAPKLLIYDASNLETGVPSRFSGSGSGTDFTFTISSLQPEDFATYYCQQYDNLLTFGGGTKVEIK
notes: Hybridoma IgG1 (cohort 1); also called 1.72.2
B3: binding was characterised by a dissociation constant (Kd) of 5.5 nM, the koff came to 0.000568 s⁻¹ and the kon is 103000 M⁻¹ s⁻¹.

B4: anti-c-fms hybridoma antibody 2.131 (antibody, IgG2, V domains shown)
VH: QVQLQESGPGLVKPSETLSLTCTVSGGSISNYYWSWIRQSAGKGLEWIGRIYTSGSTHYNPSLKSRIIMSVDTSKNQFSLKLSSVTAADTAVYYCARDRVFYGMDVWGQGTTVTVSS
VL: DIQMTQSPSSLSASVGDRVTITCRASQGFSNYLAWYQQKPGKVPKLLIYAASTLQSGVPSRFSGSGSGTDFTLTISSLQPEDVATYYCQKYNSAPLTFGGGTKVEIK
notes: Hybridoma IgG2 (cohort 2); also called 2.131.2
With B4, the Kd is no more than 0.2 nM, the koff is no more than 1e-05 s⁻¹ and the kon turned out to be 43000 M⁻¹ s⁻¹.

B5: anti-c-fms hybridoma antibody 2.369 (antibody, IgG2, V domains shown)
VH: QVQLVQSGAEVKKPGASVKVSCKVSGYTLTELSMHWVRQAPGKGLEWMGGFDPEDGETIYAQKFQGRVTMTEDTSTDTAYMELSSLRSEDTAVYYCATRAGTTLAYYYYAMDVWGQGTTVTVSS
VL: DIQMTQSPSSLSASVGDRVTITCRASQSISRYLNWYQQKPGKAPNLLIHAASSLQSGVPSRFSGSGSGTDFTLTISSLQPEDFATYYCQQSYITPPSFGQGTKLEIK
notes: Hybridoma IgG2 (cohort 2); also called 2.369.3
The molecule B5 returned a Kd of 14 nM, a koff of 0.00138 s⁻¹ and a kon of 100000 M⁻¹ s⁻¹.

B6: anti-c-fms hybridoma antibody 2.65 (antibody, IgG2, V domains shown)
VH: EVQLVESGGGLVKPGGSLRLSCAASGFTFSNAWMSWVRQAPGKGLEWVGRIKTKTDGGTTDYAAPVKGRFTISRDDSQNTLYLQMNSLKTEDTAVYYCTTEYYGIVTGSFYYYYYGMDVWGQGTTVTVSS
VL: DIQMTQSPSSLSASVGDRVTITCQASQDINNYLNWYQQKPGKAPKLLIYDASNLETGVPSRFSGSGSGTDFTFTISSLQPEDIATYYCQQYDDLLTFGGGTKVEIK
notes: Hybridoma IgG2 (cohort 2); also called 2.65.2
In turn, B6 had a Kd of 9.5 nM, a koff of 0.0016 s⁻¹ and an association rate constant (kon) of 168000 M⁻¹ s⁻¹.

B7: anti-c-fms hybridoma antibody 1.16 (antibody, IgG1, V domains shown)
VH: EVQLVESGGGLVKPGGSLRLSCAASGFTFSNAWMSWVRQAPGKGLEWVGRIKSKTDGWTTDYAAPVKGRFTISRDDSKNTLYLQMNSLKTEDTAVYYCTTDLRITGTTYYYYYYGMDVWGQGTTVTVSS
VL: B6 VL with N30S, L46F, D93N, L95I, G99Q, K102R, V103L
notes: Hybridoma IgG1 (cohort 1)
On to B7, for which the Kd turned out to be 23 nM, the off-rate constant (koff) is 0.00296 s⁻¹ and the kon was determined as 129000 M⁻¹ s⁻¹.

B8: anti-c-fms hybridoma antibody 1.13 (antibody, V domains shown)
VH: QVQLQESGPGLVKPSETLSLTCTVSGGSVSSGGYYWSWIRQPPGKGLEWIGYIYYSGSTNYNPSLKSRVTISVDTSKNQFSLKLSSVTAADTAVYYCAAGIAATGTLFDCWGQGTLVTVSS
VL: DIQMTQSPSSLSASVGDRVTITCQASQDISNYLNWYQQKPGKAPKLLIYDASNLETGVPSRFSGSGSGTDFTFIISSLQPEDIATYYCQQFDNLPPTFGGGTKVESK
notes: Hybridoma IgG1 (cohort 1)
For B8, the Kd came to 6.4 nM, the koff is 0.000773 s⁻¹ and the kon turned out to be 120000 M⁻¹ s⁻¹.

B9: anti-c-fms hybridoma antibody 1.90 (antibody, IgG1, V domains shown)
VH: QVQLVESGGGVVQPGRSLRLSCAASGFTFSSYGMHWVRQAPGKGLEWVAVIWYDGSNKYYADSVKGRFTISRDNSKNTLYLQMNSLRAEDTAVYYCASSSSNFYDMDVWGQGTTVTVSS
VL: B8 VL with I74T, Q90R, F91Y, N93D, P96I, G100Q, K103R, V104L, S106I
notes: Hybridoma IgG1 (cohort 1); also called 1.90.2
In turn, B9 came in with a Kd of 10 nM, a koff of 0.002 s⁻¹ and a kon of 193000 M⁻¹ s⁻¹.
